Laboratory results: US20200262877A1, “ION CHANNEL-BINDING PEPTIDES AND METHODS OF USE THEREOF” (priority 2017, published 2020)

Key:
5HT3a = molecular target: T1, 5HT3a (Homo sapiens, UniProt P46098); assay: Ion channel panel (IonWorks Barracuda): 5HT3a; assay type: cell-based
T1 construct: host or cells: HEK293 or CHO
T1 sequence (P46098 whole entry, looked up): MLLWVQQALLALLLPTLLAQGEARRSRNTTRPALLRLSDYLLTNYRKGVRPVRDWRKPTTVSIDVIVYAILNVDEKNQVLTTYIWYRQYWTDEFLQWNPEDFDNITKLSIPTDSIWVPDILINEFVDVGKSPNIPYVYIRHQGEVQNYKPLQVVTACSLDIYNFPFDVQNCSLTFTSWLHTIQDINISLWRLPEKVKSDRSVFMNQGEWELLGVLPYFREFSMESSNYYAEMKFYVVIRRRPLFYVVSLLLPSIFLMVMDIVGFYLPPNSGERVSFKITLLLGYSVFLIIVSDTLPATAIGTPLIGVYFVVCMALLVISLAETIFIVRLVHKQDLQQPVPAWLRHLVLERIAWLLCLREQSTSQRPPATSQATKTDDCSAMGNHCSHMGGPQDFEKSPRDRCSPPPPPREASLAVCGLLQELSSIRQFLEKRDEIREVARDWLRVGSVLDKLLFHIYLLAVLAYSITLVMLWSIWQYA
Method in brief: (§1)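 Peptides were tested in duplicate at final 20 μM and 200 nM, with concentration set by amino acid analysis, in HEPES-buffered saline. They were applied for at least 5 min to HEK293 or CHO cells transfected with each channel. Currents were expressed as % inhibition, 1-(Ipeptide/Icontrol)×100, or % activation, Ipeptide/Icontrol×100, against a channel-matched reference compound.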

α3β4 = molecular target: T2, α3β4 (Homo sapiens, UniProt P30926+P32297); assay: Ion channel panel (IonWorks Barracuda): α3β4; assay type: cell-based; details: 100% = no change, <100% = inhibition
T2 construct: host or cells: HEK293 or CHO
Method in brief: as §1

α4β2 = molecular target: T3, α4β2 (Homo sapiens, UniProt P17787+P43681); assay: Ion channel panel (IonWorks Barracuda): α4β2; assay type: cell-based; details: 100% = no change, <100% = inhibition
T3 construct: host or cells: HEK293 or CHO
Method in brief: as §1

Cav2.1 = molecular target: T4, Cav2.1 (Homo sapiens, UniProt O00555); assay: cell-based; details: 100% = no change, <100% = inhibition
T4 construct: host or cells: HEK293 or CHO
Method in brief: as §1

Cav2.2 = molecular target: T5, Cav2.2 (Homo sapiens, UniProt Q00975); assay: cell-based; details: 100% = no change, <100% = inhibition
T5 construct: host or cells: HEK293 or CHO
Method in brief: as §1

Kv2.1 = molecular target: T6, Kv2.1 (Homo sapiens, UniProt Q14721); assay: cell-based; details: 100% = no change, <100% = inhibition
T6 construct: host or cells: HEK293 or CHO
Method in brief: as §1

GABA = assay: Ion channel panel (IonWorks Barracuda): GABA; assay type: cell-based; details: 100% = no change, <100% = inhibition
Method in brief: as §1

Nav1.5 = Nav1.5 (Homo sapiens, UniProt Q14524); assay: in vitro; details: 100% = no change; for Activity of Nav1.5 with peptide, expressed as a percentage of the reference compound: peptide at 0.2 μM; for Activity of Nav1.5 with peptide (percentage of the reference compound): peptide at 20 μM
Method in brief: as §1

hERG = hERG (Homo sapiens, UniProt Q12809); assay: in vitro; details: 100% = no change, <100% = inhibition
Method in brief: as §1

Kir2.1 = molecular target: T7, Kir2.1 (Homo sapiens, UniProt P63252); assay: Ion channel panel (IonWorks Barracuda): Kir2.1; assay type: cell-based; details: 100% = no change, <100% = inhibition
T7 construct: host or cells: HEK293 or CHO
Method in brief: as §1

Kv1.1 = molecular target: T8, Kv1.1 (Homo sapiens, UniProt Q09470); assay: cell-based; assay type: cell-based; details: 100% = no change, <100% = inhibition
T8 construct: host or cells: HEK293 or CHO
Method in brief: as §1

Kv1.2 = molecular target: T9, Kv1.2 (Homo sapiens, UniProt P16389); assay: cell-based; assay type: cell-based; details: 100% = no change, <100% = inhibition
T9 construct: host or cells: HEK293 or CHO
Method in brief: as §1

Kv1.3 = molecular target: T10, Kv1.3 (Homo sapiens, UniProt P22001); assay: cell-based; assay type: cell-based; details: 100% = no change, <100% = inhibition
T10 construct: host or cells: HEK293 or CHO
Method in brief: as §1

Nav1.7 = molecular target: T11, Nav1.7 (Homo sapiens, UniProt Q15858); assay: cell-based; assay type: cell-based; details: 100% = no change; for Activity of Nav1.7 with peptide, expressed as a percentage of the reference compound: peptide at 0.2 μM; for Activity of Nav1.7 with peptide (percentage of the reference compound): peptide at 20 μM
T11 construct: host or cells: HEK293 or CHO

NR2A = molecular target: T12, NR2A (Homo sapiens, UniProt Q12879); assay: Ion channel panel (IonWorks Barracuda): NR2A; assay type: cell-based; details: 100% = no change, <100% = inhibition
T12 construct: host or cells: HEK293 or CHO
Method in brief: as §1

NR2B = molecular target: T13, NR2B (Homo sapiens, UniProt Q13224); assay: Ion channel panel (IonWorks Barracuda): NR2B; assay type: cell-based; details: 100% = no change, <100% = inhibition
T13 construct: host or cells: HEK293 or CHO
Method in brief: as §1

TRPA1 = molecular target: T14, TRPA1 (Homo sapiens, UniProt O75762); assay: Ion channel panel (IonWorks Barracuda): TRPA1; assay type: cell-based; details: 100% = no change, <100% = inhibition
T14 construct: host or cells: HEK293 or CHO
Method in brief: as §1

TRPV1 = molecular target: T15, TRPV1 (Homo sapiens, UniProt Q8NER1); assay: Ion channel panel (IonWorks Barracuda): TRPV1; assay type: cell-based; details: 100% = no change, <100% = inhibition
T15 construct: host or cells: HEK293 or CHO
Method in brief: as §1

[1] = first of two Nav1.5 columns (probably TP1)
[2] = second of two Nav1.5 columns (probably TP2)
[3] = first of two Nav1.7 columns (probably TP1)
[4] = second of two Nav1.7 columns (probably TP2)

Sequence of Nav1.5 (Q14524 whole entry): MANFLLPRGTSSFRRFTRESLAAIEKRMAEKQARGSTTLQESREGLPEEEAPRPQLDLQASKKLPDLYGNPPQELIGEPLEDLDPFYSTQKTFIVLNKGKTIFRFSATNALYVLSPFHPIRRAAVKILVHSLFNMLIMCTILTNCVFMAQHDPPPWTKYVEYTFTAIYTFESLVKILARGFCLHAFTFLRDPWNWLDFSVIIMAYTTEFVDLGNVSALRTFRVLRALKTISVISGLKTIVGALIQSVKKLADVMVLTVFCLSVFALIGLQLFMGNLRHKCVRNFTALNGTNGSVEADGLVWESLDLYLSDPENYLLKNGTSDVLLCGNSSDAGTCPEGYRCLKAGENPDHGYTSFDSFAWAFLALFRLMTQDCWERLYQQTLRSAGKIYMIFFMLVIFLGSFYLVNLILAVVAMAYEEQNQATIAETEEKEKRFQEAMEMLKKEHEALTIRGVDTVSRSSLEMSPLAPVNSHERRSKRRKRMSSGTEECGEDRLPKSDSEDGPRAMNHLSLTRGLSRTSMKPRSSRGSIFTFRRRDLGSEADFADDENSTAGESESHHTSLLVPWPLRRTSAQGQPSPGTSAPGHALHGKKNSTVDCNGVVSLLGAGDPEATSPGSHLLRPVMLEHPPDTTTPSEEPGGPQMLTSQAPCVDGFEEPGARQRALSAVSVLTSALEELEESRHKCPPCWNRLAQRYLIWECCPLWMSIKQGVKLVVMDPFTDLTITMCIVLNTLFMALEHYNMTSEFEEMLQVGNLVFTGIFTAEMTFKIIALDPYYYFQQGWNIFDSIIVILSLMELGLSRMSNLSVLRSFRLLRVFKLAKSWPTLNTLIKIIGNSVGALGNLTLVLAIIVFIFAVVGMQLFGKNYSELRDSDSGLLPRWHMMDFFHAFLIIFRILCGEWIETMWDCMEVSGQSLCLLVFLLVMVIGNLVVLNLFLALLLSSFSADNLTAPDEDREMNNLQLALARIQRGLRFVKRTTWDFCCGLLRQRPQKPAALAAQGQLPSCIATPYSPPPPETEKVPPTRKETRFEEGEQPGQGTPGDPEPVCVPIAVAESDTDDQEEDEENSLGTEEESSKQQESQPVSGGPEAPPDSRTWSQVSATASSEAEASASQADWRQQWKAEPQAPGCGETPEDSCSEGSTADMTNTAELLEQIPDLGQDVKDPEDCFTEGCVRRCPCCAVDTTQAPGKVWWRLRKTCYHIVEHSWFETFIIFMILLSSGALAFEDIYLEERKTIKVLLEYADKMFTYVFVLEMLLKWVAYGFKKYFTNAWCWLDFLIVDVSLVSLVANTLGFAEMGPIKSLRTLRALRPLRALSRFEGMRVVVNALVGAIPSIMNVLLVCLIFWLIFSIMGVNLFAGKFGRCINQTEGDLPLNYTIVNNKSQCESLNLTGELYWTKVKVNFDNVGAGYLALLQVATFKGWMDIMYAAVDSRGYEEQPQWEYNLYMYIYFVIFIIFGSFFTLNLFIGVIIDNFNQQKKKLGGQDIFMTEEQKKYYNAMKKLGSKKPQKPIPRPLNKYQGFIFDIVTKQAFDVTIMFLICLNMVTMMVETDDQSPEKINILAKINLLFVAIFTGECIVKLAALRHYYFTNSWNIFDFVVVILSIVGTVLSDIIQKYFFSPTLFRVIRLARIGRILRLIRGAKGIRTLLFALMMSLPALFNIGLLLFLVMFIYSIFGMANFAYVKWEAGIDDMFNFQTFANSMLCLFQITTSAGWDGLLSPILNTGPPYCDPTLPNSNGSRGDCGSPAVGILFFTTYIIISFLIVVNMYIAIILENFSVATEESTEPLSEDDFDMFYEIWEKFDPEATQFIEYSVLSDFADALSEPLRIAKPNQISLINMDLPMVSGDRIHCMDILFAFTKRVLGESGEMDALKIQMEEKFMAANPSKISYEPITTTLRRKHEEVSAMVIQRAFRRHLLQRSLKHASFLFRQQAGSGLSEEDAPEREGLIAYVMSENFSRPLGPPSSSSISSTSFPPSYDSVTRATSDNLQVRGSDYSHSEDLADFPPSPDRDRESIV
T11 sequence (Q15858 whole entry): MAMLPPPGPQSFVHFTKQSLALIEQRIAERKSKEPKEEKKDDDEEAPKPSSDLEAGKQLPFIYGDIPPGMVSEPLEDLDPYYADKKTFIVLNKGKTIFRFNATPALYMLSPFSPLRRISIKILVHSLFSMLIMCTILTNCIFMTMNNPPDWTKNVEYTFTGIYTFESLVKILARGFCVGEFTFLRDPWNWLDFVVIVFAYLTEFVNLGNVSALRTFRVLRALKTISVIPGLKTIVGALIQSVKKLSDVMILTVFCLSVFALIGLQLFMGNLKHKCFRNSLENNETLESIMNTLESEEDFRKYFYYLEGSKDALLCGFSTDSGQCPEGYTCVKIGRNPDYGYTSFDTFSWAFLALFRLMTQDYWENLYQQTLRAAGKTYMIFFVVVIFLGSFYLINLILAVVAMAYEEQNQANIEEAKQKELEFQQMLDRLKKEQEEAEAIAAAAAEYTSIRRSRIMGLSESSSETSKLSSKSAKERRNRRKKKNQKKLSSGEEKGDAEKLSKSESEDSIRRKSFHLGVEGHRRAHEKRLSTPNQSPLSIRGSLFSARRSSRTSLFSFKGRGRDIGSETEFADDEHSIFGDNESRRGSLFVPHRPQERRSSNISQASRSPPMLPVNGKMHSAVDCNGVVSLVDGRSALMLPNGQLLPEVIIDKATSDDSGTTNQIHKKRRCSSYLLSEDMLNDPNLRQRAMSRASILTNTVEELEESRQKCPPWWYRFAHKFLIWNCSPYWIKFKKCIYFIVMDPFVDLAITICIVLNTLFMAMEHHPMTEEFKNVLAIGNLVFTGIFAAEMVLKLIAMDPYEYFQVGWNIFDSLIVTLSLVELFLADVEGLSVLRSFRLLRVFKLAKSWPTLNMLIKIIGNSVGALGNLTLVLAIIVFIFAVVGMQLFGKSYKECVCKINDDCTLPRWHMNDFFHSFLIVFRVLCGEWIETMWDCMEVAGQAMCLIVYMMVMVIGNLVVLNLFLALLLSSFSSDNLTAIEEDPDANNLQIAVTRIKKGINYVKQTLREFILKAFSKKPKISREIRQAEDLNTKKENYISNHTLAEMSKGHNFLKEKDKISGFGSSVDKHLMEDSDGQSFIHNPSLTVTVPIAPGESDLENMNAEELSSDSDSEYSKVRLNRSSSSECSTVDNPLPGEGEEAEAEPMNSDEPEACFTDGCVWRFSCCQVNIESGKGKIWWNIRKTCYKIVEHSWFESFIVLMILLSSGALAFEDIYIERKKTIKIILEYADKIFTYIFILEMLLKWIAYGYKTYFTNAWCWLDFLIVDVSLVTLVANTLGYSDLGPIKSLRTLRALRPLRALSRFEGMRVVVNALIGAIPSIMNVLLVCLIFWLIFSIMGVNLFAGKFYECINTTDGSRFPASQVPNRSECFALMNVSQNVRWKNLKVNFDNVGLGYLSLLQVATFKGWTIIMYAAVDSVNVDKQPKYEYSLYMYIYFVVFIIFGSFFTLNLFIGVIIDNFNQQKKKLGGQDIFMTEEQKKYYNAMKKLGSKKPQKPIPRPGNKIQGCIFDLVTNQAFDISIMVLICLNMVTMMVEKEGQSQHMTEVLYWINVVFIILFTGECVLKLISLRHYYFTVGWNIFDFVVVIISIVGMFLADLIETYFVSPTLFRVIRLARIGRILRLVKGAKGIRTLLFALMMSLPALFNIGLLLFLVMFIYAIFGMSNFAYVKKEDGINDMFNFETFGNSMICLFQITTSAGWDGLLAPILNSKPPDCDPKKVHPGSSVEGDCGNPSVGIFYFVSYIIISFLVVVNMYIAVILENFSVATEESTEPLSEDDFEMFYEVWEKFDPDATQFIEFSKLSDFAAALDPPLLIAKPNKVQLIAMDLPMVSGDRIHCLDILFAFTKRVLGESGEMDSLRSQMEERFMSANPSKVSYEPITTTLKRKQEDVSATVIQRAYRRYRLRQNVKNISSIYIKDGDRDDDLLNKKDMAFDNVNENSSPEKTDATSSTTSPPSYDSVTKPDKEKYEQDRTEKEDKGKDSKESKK
T3 sequence (P43681 29-627): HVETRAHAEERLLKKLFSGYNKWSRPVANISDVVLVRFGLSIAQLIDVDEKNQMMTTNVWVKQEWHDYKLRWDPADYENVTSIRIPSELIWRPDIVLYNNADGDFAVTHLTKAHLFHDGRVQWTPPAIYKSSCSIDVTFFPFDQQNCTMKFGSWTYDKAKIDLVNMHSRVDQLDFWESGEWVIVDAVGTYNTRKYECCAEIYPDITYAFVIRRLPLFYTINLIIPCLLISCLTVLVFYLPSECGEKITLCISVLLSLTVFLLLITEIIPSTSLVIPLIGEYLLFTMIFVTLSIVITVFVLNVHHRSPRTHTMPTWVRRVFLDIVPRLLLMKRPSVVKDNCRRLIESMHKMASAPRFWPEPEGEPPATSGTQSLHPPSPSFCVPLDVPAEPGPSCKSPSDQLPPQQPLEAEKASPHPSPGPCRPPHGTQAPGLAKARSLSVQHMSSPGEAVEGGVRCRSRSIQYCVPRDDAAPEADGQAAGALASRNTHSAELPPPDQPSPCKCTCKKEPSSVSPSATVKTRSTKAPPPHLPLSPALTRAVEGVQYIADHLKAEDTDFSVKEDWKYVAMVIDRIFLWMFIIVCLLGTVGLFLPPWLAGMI
T3 sequence (P17787 26-502): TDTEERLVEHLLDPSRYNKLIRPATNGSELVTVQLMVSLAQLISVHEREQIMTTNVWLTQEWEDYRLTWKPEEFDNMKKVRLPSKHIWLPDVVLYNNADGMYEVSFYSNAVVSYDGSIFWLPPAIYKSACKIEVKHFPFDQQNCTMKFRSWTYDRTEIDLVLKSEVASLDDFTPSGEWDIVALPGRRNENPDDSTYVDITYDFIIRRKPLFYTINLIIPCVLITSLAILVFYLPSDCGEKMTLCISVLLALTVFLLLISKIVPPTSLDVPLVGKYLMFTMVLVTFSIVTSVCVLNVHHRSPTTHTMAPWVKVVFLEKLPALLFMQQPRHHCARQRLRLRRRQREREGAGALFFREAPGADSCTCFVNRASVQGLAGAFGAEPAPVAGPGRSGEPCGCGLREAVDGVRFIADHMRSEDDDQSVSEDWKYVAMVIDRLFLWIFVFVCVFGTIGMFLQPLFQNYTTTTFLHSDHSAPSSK

## 25 (GSACLAEYQKCEGSTVPCCPGLSCSAGRFRKTKLCTK) [compound 25]
5HT3a
  Activity of 5HT3a with peptide (percentage of the reference compound): 94%
  Activity of 5HT3a with peptide, expressed as a percentage of the reference compound: 82%
α3β4; peptide at 0.2 μM
  Activity of a3b4 with peptide, expressed as a percentage of the reference compound: 105%
α3β4; peptide at 20 μM
  Activity of a3b4 with peptide (percentage of the reference compound): 91%
α4β2; peptide at 0.2 μM
  Activity of a4b2 with peptide, expressed as a percentage of the reference compound: 73%
α4β2; peptide at 20 μM
  Activity of a4b2 with peptide (percentage of the reference compound): 75%
Cav2.1; peptide at 0.2 μM
  Activity of Cav2.1 with peptide, expressed as a percentage of the reference compound: 89%
Cav2.1; peptide at 20 μM
  Activity of Cav2.1 with peptide (percentage of the reference compound): 109%
Cav2.2; peptide at 0.2 μM
  Activity of Cav2.2 with peptide, expressed as a percentage of the reference compound: 111%
Cav2.2; peptide at 20 μM
  Activity of Cav2.2 with peptide (percentage of the reference compound): 111%
Kv2.1; peptide at 0.2 μM
  Activity of Kv2.1 with peptide, expressed as a percentage of the reference compound: 88%
Kv2.1; peptide at 20 μM
  Activity of Kv2.1 with peptide (percentage of the reference compound): 107%
GABA; peptide at 0.2 μM
  Activity of GABA with peptide, expressed as a percentage of the reference compound: 111%
GABA; peptide at 20 μM
  Activity of GABA with peptide (percentage of the reference compound): 98%
Nav1.5; [1]
  Activity of Nav1.5 with peptide, expressed as a percentage of the reference compound: 76%
  Activity of Nav1.5 with peptide (percentage of the reference compound): 88%
Nav1.5; [2]
  Activity of Nav1.5 with peptide, expressed as a percentage of the reference compound: 74%
  Activity of Nav1.5 with peptide (percentage of the reference compound): 87%
hERG; peptide at 0.2 μM
  Activity of hERG with peptide, expressed as a percentage of the reference compound: 76%
hERG; peptide at 20 μM
  Activity of hERG with peptide (percentage of the reference compound): 79%
Kir2.1; peptide at 0.2 μM
  Activity of Kir2.1 with peptide, expressed as a percentage of the reference compound: 79%
Kir2.1; peptide at 20 μM
  Activity of Kir2.1 with peptide (percentage of the reference compound): 98%
Kv1.1; peptide at 0.2 μM
  Activity of Kv1.1 with peptide, expressed as a percentage of the reference compound: 69%
Kv1.1; peptide at 20 μM
  Activity of Kv1.1 with peptide (percentage of the reference compound): 77%
Kv1.2; peptide at 0.2 μM
  Activity of Kv1.2 with peptide, expressed as a percentage of the reference compound: 72%
Kv1.2; peptide at 20 μM
  Activity of Kv1.2 with peptide (percentage of the reference compound): 85%
Kv1.3; peptide at 0.2 μM
  Activity of Kv1.3 with peptide, expressed as a percentage of the reference compound: 74%
Kv1.3; peptide at 20 μM
  Activity of Kv1.3 with peptide (percentage of the reference compound): 87%
Nav1.7; [3]
  Activity of Nav1.7 with peptide, expressed as a percentage of the reference compound: 66%
  Activity of Nav1.7 with peptide (percentage of the reference compound): 90%
Nav1.7; [4]
  Activity of Nav1.7 with peptide, expressed as a percentage of the reference compound: 54%
  Activity of Nav1.7 with peptide (percentage of the reference compound): 83%
NR2A; peptide at 0.2 μM
  Activity of NR2A with peptide, expressed as a percentage of the reference compound: 94%
NR2A; peptide at 20 μM
  Activity of NR2A with peptide (percentage of the reference compound): 106%
NR2B; peptide at 0.2 μM
  Activity of NR2B with peptide, expressed as a percentage of the reference compound: 99%
NR2B; peptide at 20 μM
  Activity of NR2B with peptide (percentage of the reference compound): 94%
TRPA1; peptide at 0.2 μM
  Activity of TRPA1 with peptide, expressed as a percentage of the reference compound: 124%
TRPA1; peptide at 20 μM
  Activity of TRPA1 with peptide (percentage of the reference compound): 129%
TRPV1; peptide at 0.2 μM
  Activity of TRPV1 with peptide, expressed as a percentage of the reference compound: 117%
TRPV1; peptide at 20 μM
  Activity of TRPV1 with peptide (percentage of the reference compound): 113%
